Measurements as given in publication PMC7644948 (iScience, 2020).

Biological target: the molecule itself
Assay: SEC

B1: PKM2 mutant with triple mutations (R399E, K422A, and N523A) (enzyme)
chain: not shown
stoichiometry N: 2
